assay: soluble on expression in E. coli; label from the status in PepcDB or PDB records

Row | Sequence | soluble on expression in E. coli
1 | MGSDKIHHHHHHMDNPVMSAITSLYPQVQFLQRQAASLLLYQSVLQTDVGIAFQELLQAIRYADADARGSLQAYGNYFHALATRKQNWEDYLVSQILIAENPFSKVTQQQDFKDLPPALISAVKHDLQVLQSLYECNSAVLSQWVQAVAHLPISPVVWYLEQDDMGSETALSLHHLEHWADAVEELATHYQKFGIGLFAQYRALRWQDGEFVGIPYPDPVKLGTLVGYESQQEALLKNTEFLLSGEKALHVLLYGSRGAGKSSLVKALLNEYSHRQLRLLEVSKADLKDLPKIVEQLRGVPQKFIIFVDDLSFEEDDDAFKALKVVLEGNLTARPHNVVVYATSNRRHLIREFFADRPSLKNNEEVHAGDTMQEKLSFSDRFGLTLTFESADQSTYLKIVRHLATQAGISISPEELEYQALQWATRHNGRSGRTAQQFIDFLKADTSVFATNNSILDTQS | not soluble
2 | MSLEKVKVAVIGAGNRGMYAYAPYIYENSDVCEIVAVAEPKKGRRELFTKKYNLDSKNVFETLEDFFKHDKMADAVIIATNDDRHYDVAKLALEKGYHVLLEKPMSNSLDGLVHIDDLCDKYKDKIFMICHVLRYSPFYNKLKEIVESKKLGELVSIQYNENIGYWHFAHSFTRGNWRNSNETSPLILAKSCHDMDILLYLVGSRCKKISAFGSLKHLNNQNASGEMAQNCLQCLVEKKCPYSAKRIYLEKDRSINRAVHINPTEENLLNILKTSPYGRCVYRCDNNVVDNMVNILQFENGVTATFNLCAFTKENGRTIKLMFSHGEVGGDLNKNEIRIKEFGKNEEIVMNPSNQQNMVEEYDRNLIAEFIKLVSNKELEKGRVAAKEAIQSHVMAFAAEYSRVSDEVVYIEEFFDSAKQMTKEIEETEGHHHHHH | soluble
3 | MSLLWSRCTLFLFLCPIRVRGREHIPGKGPFVVMANHQGACDIFMMYGYLGIPFKWVLKEGIRKLPFVGYACRSAGFVFVDDTRPSSIAHTMDQAKRVLAEGTSIFIFPEGSRTRNGRLARFKKGGFLMADELGVPIIPVSLDGSYRVLPSGKLIPRPHRLTLTIHPPLSVADFGERPLCISEAVRETSRRIASVLPEEMAATQSKEGHHHHHH | not soluble
4 | MSKTDVKKSREASGILTLQVNLRERRNFLNLMQNKLFSWKIRFSAIKGKCSQKSKYFRRSRSEDCYVEADLKILSRTRRSRKLPGTVPDFLGKQLIGISSSVVSRVSRSCR | soluble
5 | SPSSPLRVAVVCSSNQNRSMEAHNILSKRGFSVRSFGTGTHVKLPGPAPDKPNVYDFKTTYDQMYNDLLRKDKELYTQNGILHMLDRNKRIKPRPERFQNCTDLFDLILTCEERVYDQVVEDLNSREQETCQPVHVVNVDIQDNHEEATLGAFLICELCQCVSLSSWVLLGLLIATYKNKIK | soluble
6 | MGSDKIHHHHHHMTDVNASSESRLAALEARVTELEDLNAIRRLQWAYGYYIDYNRPEEVAGLFAKDGAVVFLSGEYVGYEGVMRLYGTWFQNLFTGGRRGPVHGLLLDHFQLQDVITIAPDGQTAKGRFRGILAGGWHDDIVKDKPEGMPQQFWESGIYENDYVKEDGVWKIKRLDYMMQWQADYETGWSKTIAHLQPAAVCFPENPIGPDRLLPETEVRQTWPHRAEVPMSFAHPVLAKAFAVGEFTKLQKKWP | not soluble
7 | MSLGEESRDPVAALRLIKHDQQANLYVLCDLHPFLGDSPTLVRLLKEIAMAEGNHRPTVVLVSHALKLPAEVQRFAARFSLSLPSEDELLGIVREEATRWSERNRGARVRTDNRTLQQVVKNLRGLSHAEARLLARNVICNDGAITQEDLPELNRTKFQLLDLEGVLSFEYDTARFAEVGGLAALKRWLGERQSAFLAGKPGDQPKGMMLVGVQGAGKSLAAKAVAGLWGLPLLRLDFACLYNKYFGETERNLREALRLAEQMAPCVLWMDEVEKGISGGDQDNGVSQRVLGTLLTWMAEREAPVFMVATANAIDRLPPELIRKGRFDELFFVDLPTPEVRAEIFRIHLQRRELEPAQFDLHLLAAASEGFSGAEIEQAVVAALYAGQARQQAVDQDLLLRELARTSPLSVLMAEKLAALRTWAKGRAVPADEGHHHHHH | not soluble
8 | MLERRDKEITDLKRRVANMVVVGKISHVDHKNARYRVKTGNLVSDWIPDTQARAGKTRSYEGRDVGEQVVVVSSSGDLSQGVIVGSIHTDANQAADKGNLHKTLYPDGTTIEYDDEQNSYALHLTSGGKFSLTISDGVSIKGDGKKLELQAAEGIKIISQGDLSLSAEKNIALKAGGSVSLHSDDGIALHSSEGVSIHSSDLKHNGTNIGNSHVHGGVSPGGSMTGGPN | soluble
9 | MPRSFLVKKHFNASKKPNYSELDTHTVIISPYLYESYSMPVIPQPEILSSGAYSPITVWTTAAPFHAQLPNGLSPLSGYSSSLGRVSPPPPSDTSSKDHSGSESPISDEEERLQSKLSDPHAIEAEKFQCNLCNKTYSTFSGLAKHKQLHCDAQSRKSFSCKYCDKEYVSLGALKMHIRTHTLPCVCKICGKAFSRPWLLQGHIRTHTGEKPFSCPHCNRAFADRSNLRAHLQTHSDVKKYQCKNCSKTFSRMSLLHKHEESGCCVAH | not soluble
10 | MKKKIIKKKSAAAPASKIPDDFEMPMARVADEDDVAEDYKVVDMSEIAAPIIEFEMPNLVEKSPEEFKNSEVTGEASREVSVKTPKKVTKRVRKSSKTDKTDQIPLTAEKLNNELVALRATCLTAKNQLMSRIVRQKKQLESKKSQKVDGKSKEERDRKIARLVEEILGLKTFDKDSVAKFAALNTKSLAELKINGKTEVAERLMYKLVCQSIIVEKIQSIREKYTEWNKTAAFFMQRLGQQYANKPEKKSKKSTEKKELNIENLEDLNNEDEDSENEKEEEIEENEEDYDQSDIEMLDSDEEEAGEEAAKNRRNLLLGLIGVQEDKNRPSLAPKKRKLVEEEDEEVETVKNQKKMKQIFEKELKSKEVKNPKKSNKSTKKPTKSAPIVKKVEEKKVEENEVSDDESDQKTLVMKVDLSKGGKIAKAQKFSTTAPKSAKIVAPVSEDENDDDESSSFFLPKSGVVAPRKIIPKKPSENVEKVDKRFQKGTQKKSEAVVEKKKGSSKSAVSGEMHPSWIASQLKKKELASAKPCGKKITFGDDEEE | not soluble
11 | GKSPEAECNKITEEPKCSEEKICSWHKEVKAGEKNCQFNSTKASKS | soluble
12 | MKTNYHTHTTRCMHAVGDDEDYVRSAIKGGFQELGFSDHGPWKYHTDFVSDIRMLPEDLPEYIESIRALKEKYRNQISIKIGLEYEYFPEYIHWLKEIIKEYRLDYILFGNHHYHTDEKFPYFGHHTTNRDMLDLYEESTIEGMESGLFAYLAHPDLFMRSYPEFDKHCISVSRHICRAAARLHIPLEYNIGYVAINEARGITTYPCPQFWHIAANEGCTAIIGLDAHNNLDLENPTYYDRACQELNALKMPVIDTIPFLKY | not soluble
13 | MVLTGVTSKAIRKGDAEPPLSKGSFRVYNMRFCPWAERAMLYVAAKGIEAEVVNLNVTDKLEWYWTKHYQGKAPAVEHNGKVVIESGFIPEYLDDAFPETRILPTDPYEKVQQKLLADRLTAVAHAVPLLFAVMRDRTLKDEKQRKVFEVLKQAENLLANDFYAGSQPGYPDYLSFPFFEKIWWSASLDGVVDLPTIEFPGEEEYPKLTKWFQKMISSDVVQSVTQSLEHGAAFMNAYATHQELNYDLGL | not soluble
14 | EEKVVAEQQADGTWLMDGWISIRKASNLLEHDLVDEAERYSTLGGYLLWQFGYIPAAGEQITVDGLIFEIVSVNKHNIGKVRVHRTQ | soluble
15 | MGSDKIHHHHHHMGTFFVDFYNEYPDTSYIKIPTNPLDRVIGQDDAVKIAMVAAKQRRHLLLVGPPGVGKSMIAQAMSFYIDRPTEEIRVVHNPQYPERPFVEIKTREEVMAEREEETSTSGIIIDPKDAPTSVAERLGYRCSKCGFYSSPSDAVCPNCNSPKIQMGTQGPFGDVFNVIGAAFGVQNNLDKVTLTRRNGDHDEIIVYERYNDKIRVLDEKTLERRRRLEKKSPSKTIVPIDRNPFVLATGASETELLGDVRHDPYGGHPQLGTLPYERVIAGAVHEAHQGVLFIDEITHLGNLQRYILTAMQEKTFPITGRNPQSAGASVRVDKVPADFILVAACNINDLPYILSPLRSRIVGNGYEILMKTTMKDTDENRMKYLQFISQEITMDGKIPHMTMEAAELIIEEGKKRARIIDKKNNELTLRLRELGGLIRAAGDIAVFKGNKLIEKEDVEEAIKLYVPVEEKITKEYGSMAAAYSSENTTSQKDFYNYNLDDRSYE | not soluble
16 | MTTPNPLAKTKGAGTTFWMYTGNGDAFANPLSDTDWLRLAMVKDLQPGEMTADAEDDTYLDDEDADWKTTTQGQKSVGDTSATLACRPGDSGQKKLVQLFDSGEVCAFRIKYPNGTVDVFRGWLSSLGKTIASKDVMTRTVKISGVGRPYLAEEGTETVGVTGLTVAPASVSVKAGATTTLTFTVKPDGASDKAISVHSSDPQTASVTLSGLVATVKGVKQGSVSIVGMTSDGEFVAVAAVTVSAP | not soluble
17 | MLSYRHSFHAGNHADVLKHTVQSLIIESLKEKDKPFLYLDTHAGAGRYQLGSEHAERTGEYLEGIARIWQQDDLPAELEAYINVVKHFNRSGQLRYYPGSPLIARQLLREQDSLQLTELHPSDYPLLRSGFQKDSRARVEKADGFQQLKAKLPPVSRRGLILIDPPYEMKTDYQAVVSGIAEGYKRFATGTYALWYPVVLRQQIKRMIHDLEATGIRKILQIELAVLPDSDRRGMTASGMIVINPPWKLEQQMNNVLSWLHSKLVPAGTGHATVSWIVPE | not soluble
18 | MQPEFWNDKRPAGVPDSLDFAAYRSVVEVFERSCKKFADRPAFSNLGVTLSYAELDRLSAAFAAYLQKQTDLQPGDRIAVQMPNVLQYPIAVFGALRAGLVVVNTNPLYTAREMRHQFKDAGVRALVYLNVFGKLVEEVLPDTRIEYLIEARMGDLLPALKGWLVNSVVKSVKKMVPDYRLPQALPFRQALKQGQGHALQPVRVGLEDVAVLQYTGGTTGVSKGAMLTHGNLVANMLQVHAQLSQLGKDGLPLMKEAQEVMIAPLPLYHIYAFTANCMCMMVSGNHNVLITNPRDIPGFVKELKKWRFSALLGLNTLFVALMEHPGFKDVDFSNLKLTNSGGTALVSATAERWKGVTGCTVVEGYGLTECSPVVTTNPYGEQARLGTVGIPVVGTALKVIDEQGNELPVGERGELCVKGPQVMKGYWQRPEATEEILDAEGWLKTGDIAVIDEDGFVRIVDRKKDLILVSGFNVYPNEIEDVVMAHPKVASCAAVGIPDEKSGEAVKLFVVARDPSLSVEELKAYCKENLTGYKIPRQIVLKDALPMTPVGKILR | not soluble
19 | MDATMVFKRLLGSLGVGAPTVDTVLDPAPVLPGGTLTGQVHLEGGQTDFDIEHITLELVARVEAEHEDGEDEGVVVFDRFTVGGGFRLGAEEPRSVPFRVTLPWETPITELYGQPLGIVLGVRTELAVADAKDKGDLDQLTVTALPVQEAVLEAFGQLGFGFGSADLEYGHIGGTGQQLPFYQEIELVPAPQYADRLNEIELTFLAGPGGLEVVLEADKRGGLLSSGHDAVTRFSVGHHDARDWAAEVEGWVRQLVEHHTTYGAPGTHGHSTPYAGHGHHDPHGNGGRHHDDHRSGPGVGTAVAAGAAGLAVGVVGGMVAAEVVDEVGDFFEGDDEEEDEG | not soluble
20 | IIPISNFFQMVDALAEVSSTRIRLQEEILAGSWESLNTGRADLLVCPSLDTLPQEVKAEKIGKMSMIWVAATEHYVHKRSGEFDDSAREKYRIIAIADTAREQPALSINIIQKQPRLTVTNFTAKVEALTAGLGIGTLPRQIALPLIEKGVLKQIEGTEEQPMDIILAWRRNTMGEAKSWCIQYLKKNWKLK | not soluble
21 | MGSDKIHHHHHHMPLQQESARQERKPVILMSMGQQDRNGHAYQVMTHKYMQPVVDISDCIPLLIPTCFGVADIEQYLDMADGVYLSGAASNIDPSLYGQENLTPEKKQDLARDLVDIALIKGAVKRGLPILGICRGMQEMNIAFGGDLYQKVHDEDHLNDHREDPDTPPDVQYGASHSISMVKGSWLHKLLGDTIEVNSLHGQGIKTLGKGLEALALAEDGLVEALHAPYLPQFTLGVQWHPEWKALENPDSIKIFKAFGEACRRRAGSALDLRIDKAS | not soluble

From the DeepSol protein solubility set
